Key:
[1] = target: the molecule itself; assay: SEC; gel filtration on HiLoad 16/600 Superdex 200 pg, in the presence of 2 mM Mg2+
[2] = target: the molecule itself; assay: crystal structure; X-ray, 1.75 Å, space group P212121, one dimer in the asymmetric unit; SeMet crystals from 0.2 M Li2SO4 and 20% PEG 3350, 25 °C

Protein | stoichiometry N [1] | binding result [2]
Ketol-acid reductoisomerase from Sulfolobus acidocaldarius (Sac-KARI), His-tagged recombinant (enzyme, pET-21a cloned through NdeI/XhoI with the His-tag coding region kept would give a C-terminal His6 tag (surmised); No tag cleavage is described; also called ilvc1559; source: E. coli BL21 (DE3), purified (heating at 65 °C for 30 min, Ni-NTA, gel filtration)) MAKIYTDKDVSLDVIKEKRVAVLGYGSQGRAWALNLRDSGIKVSVGLEREGNSWKQAENDGFKPLRTEEAVRNSDIIIFLLPDMIQRTVYLERVKPYLKEGMDLVFAHGFNIHYRLIEPPSNVDVYMIAPKAPGPIVREYFAKGGGVPALVATYQDHSGKALQKALAVAKAIGATRAGVIETTFKEETETDLFGEQVDLVGGVMQLMRYAFQTLVEAGYQPEVAYFETINEMKLIVDLVYEKGFSGMLTAVSDTAKYGGMTVGKMVIDESVKERMKKALDNIRSGKFAEKWVEEYGKGANTIKEGMKEVDNSTEEKVGRSLRDIILRGKPKS | 2 | 
SeMet-substituted Sac-KARI (ketol-acid reductoisomerase from Sulfolobus acidocaldarius) (enzyme, selenomethionine in place of methionine (SeMet-substituted), Ketol-acid reductoisomerase (class I KARI) of Sulfolobus acidocaldarius, gene ilvc1559, same pET21a-ilvc construct as m1, expressed with selenomethionine; also called SeMet-containing Sac-KARI; source: Overnight Express Autoinduction System 2 (Novagen) with L-methionine and SeMet; purified as the native protein (heating, Ni-NTA, gel filtration)) MAKIYTDKDVSLDVIKEKRVAVLGYGSQGRAWALNLRDSGIKVSVGLEREGNSWKQAENDGFKPLRTEEAVRNSDIIIFLLPDMIQRTVYLERVKPYLKEGMDLVFAHGFNIHYRLIEPPSNVDVYMIAPKAPGPIVREYFAKGGGVPALVATYQDHSGKALQKALAVAKAIGATRAGVIETTFKEETETDLFGEQVDLVGGVMQLMRYAFQTLVEAGYQPEVAYFETINEMKLIVDLVYEKGFSGMLTAVSDTAKYGGMTVGKMVIDESVKERMKKALDNIRSGKFAEKWVEEYGKGANTIKEGMKEVDNSTEEKVGRSLRDIILRGKPKS |  | binds
